Assay results taken from article PMC9801259.

Biological target: OGG1 (UniProt O15527 1-345)
Assay: EMSA

Sequence of OGG1 (O15527 whole entry): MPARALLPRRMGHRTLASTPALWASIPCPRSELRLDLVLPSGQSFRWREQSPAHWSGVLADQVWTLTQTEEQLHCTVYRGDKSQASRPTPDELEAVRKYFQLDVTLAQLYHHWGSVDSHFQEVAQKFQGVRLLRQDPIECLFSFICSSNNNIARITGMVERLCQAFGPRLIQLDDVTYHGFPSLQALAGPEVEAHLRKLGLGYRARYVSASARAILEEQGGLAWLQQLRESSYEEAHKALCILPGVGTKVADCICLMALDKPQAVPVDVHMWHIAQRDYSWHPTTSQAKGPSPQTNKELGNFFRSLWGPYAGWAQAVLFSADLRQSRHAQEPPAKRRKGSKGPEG

B1: 8-oxo(d)Gua and NF-kB motif probe (Cxcl2 promoter) (dsDNA)
DNA 1: TTCCCTGGTCCCCGGGCTTTTCCAGACATCG
DNA 2: CGATGTCTGGAAAAGCCCGGGGACCAGGGAA
modifications: 8-oxo-dG in antisense strand, printed CCAG*GGAA (G after the asterisk, position 28)
binding result: binds
